Data published in article doi:10.1101/2020.03.22.001966.
One block for each substance: values may come before it.

Key:
Assay in all cases: SEC
[1] = biological target: C9S/C41S SqrR (Rhodobacter capsulatus)
[2] = biological target: C9S/C107S SqrR (Rhodobacter capsulatus)
[3] = biological target: wild-type SqrR (sulfide quinone reductase repressor), reduced (Rhodobacter capsulatus)
[4] = biological target: Acinetobacter baumannii BigR (Acinetobacter baumannii)
[5] = biological target: C9S SqrR, reduced (Rhodobacter capsulatus)

Substance: C9S/C41S SqrR (natural protein)
stoichiometry N [1]: 2

Substance: C9S/C107S SqrR (natural protein)
stoichiometry N [2]: 2

Substance: Acinetobacter baumannii BigR (natural protein)
stoichiometry N [4]: 2

Continued, values first:

stoichiometry N [3]: 2
Substance: wild-type SqrR (sulfide quinone reductase repressor), reduced (natural protein)

stoichiometry N [5]: 2
Substance: C9S SqrR, reduced (natural protein)
